According to publication PMC8629902, “Structure–function relationships explain CTCF zinc finger mutation phenotypes in cancer”:

Biological target: T1, CTCF WT (UniProt P49711 1-727)
T1 sequence: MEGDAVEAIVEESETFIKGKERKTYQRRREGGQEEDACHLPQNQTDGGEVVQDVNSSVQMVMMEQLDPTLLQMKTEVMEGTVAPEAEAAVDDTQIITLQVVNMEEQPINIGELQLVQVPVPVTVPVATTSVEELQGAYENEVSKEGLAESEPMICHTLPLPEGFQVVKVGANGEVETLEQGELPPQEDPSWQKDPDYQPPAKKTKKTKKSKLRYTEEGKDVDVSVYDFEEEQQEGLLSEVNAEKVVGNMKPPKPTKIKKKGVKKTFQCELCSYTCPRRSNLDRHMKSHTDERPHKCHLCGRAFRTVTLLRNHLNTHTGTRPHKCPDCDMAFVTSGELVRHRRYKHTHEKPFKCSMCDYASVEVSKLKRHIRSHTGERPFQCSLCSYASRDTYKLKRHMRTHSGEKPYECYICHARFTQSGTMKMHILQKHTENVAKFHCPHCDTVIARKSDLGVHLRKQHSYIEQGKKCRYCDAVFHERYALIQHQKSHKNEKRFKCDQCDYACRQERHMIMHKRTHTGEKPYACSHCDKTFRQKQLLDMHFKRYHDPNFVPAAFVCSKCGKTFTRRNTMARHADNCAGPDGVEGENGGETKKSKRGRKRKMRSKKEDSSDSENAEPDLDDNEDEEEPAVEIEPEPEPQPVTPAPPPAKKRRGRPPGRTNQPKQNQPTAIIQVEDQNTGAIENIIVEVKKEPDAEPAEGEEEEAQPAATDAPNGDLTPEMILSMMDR
Assay: pull-down; TnT lysate protein with bead-bound DNA, 3 h at 4 C; beads washed before and after binding in PIB (250 mM NaCl, 50 mM Tris pH 8.0, 0.25% IGEPAL, EDTA-free protease inhibitor); anti-CTCF Western blot
Conditions: protein: ivt; tags: FLAG (pcDNA3.1-FLAG); label: 5' biotin on S3 strand; blunt

B1: core CTCF binding site probe (dsDNA)
DNA 1: AGGACCAGCAGGGGGCGCA
DNA 2: TGCGCCCCCTGCTGGTCCT
  binding result: binds
